Reference: PMC2648964, “Molecular Basis for the Sorting of the SNARE VAMP7 into Endocytic Clathrin-Coated Vesicles by the ArfGAP Hrb” (Cell, 2008)
Numbering of substitutions follows the chain as printed. Names may count otherwise. Blank lines part the entries; values can stand above or below the binder they belong to.

How the values were obtained:
Test in all cases: ITC; VAMP7 longin domain (1.4 ml, 0.15-0.2 mM) in the cell, Hrb at 1.5-2 mM titrated in 30-40 injections of 4-8 μl; all GST tags removed
Conditions in all cases: both partners purified
Hrb(1-176) His6 = molecular target: T1, Hrb(1-176) His6 (human, UniProt P52594-1 1-176)
T1 construct: human Hrb, residues 1-176; also called residues 1–176 of Hrb; source: E. coli BL21(DE3)/pLysS, purified (Ni-NTA-agarose); not shown: His6, C-terminal, kept
T1 sequence (looked up): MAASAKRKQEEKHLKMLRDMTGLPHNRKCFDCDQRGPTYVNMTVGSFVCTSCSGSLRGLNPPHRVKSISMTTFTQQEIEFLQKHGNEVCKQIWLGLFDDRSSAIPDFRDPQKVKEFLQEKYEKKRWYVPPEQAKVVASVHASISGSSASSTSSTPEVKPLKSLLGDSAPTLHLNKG

[1] = molecular target: T2, Hrb(1-176) His6 L163P/L164P (human, UniProt P52594-1 1-176, L163P | L164P)
T2 construct: human Hrb, residues 1-176, with L163P and L164P; source: E. coli BL21(DE3)/pLysS, purified (Ni-NTA-agarose); not shown: His6, C-terminal, kept
T2 sequence (looked up): T1 sequence (looked up) with L163P, L164P

[2] = molecular target: T3, Hrb(1-176) His6 L160S/L163S (human, UniProt P52594-1 1-176, L160S | L163S)
T3 construct: human Hrb, residues 1-176, with L160S and L163S; source: E. coli BL21(DE3)/pLysS, purified (Ni-NTA-agarose); not shown: His6, C-terminal, kept
T3 sequence (looked up): T1 sequence (looked up) with L160S, L163S

[3] = molecular target: T4, Hrb(1-176) His6 L171S/L173S (human, UniProt P52594-1 1-176, L171S | L173S)
T4 construct: human Hrb, residues 1-176, with L171S and L173S; source: E. coli BL21(DE3)/pLysS, purified (Ni-NTA-agarose); not shown: His6, C-terminal, kept
T4 sequence (looked up): T1 sequence (looked up) with L171S, L173S

- Kd (Hrb(1-176) His6): > 300 µM
B1: VAMP7 longin domain L43S/Y45S, GST tag removed (domain or fragment, mouse, UniProt P70280 1-120, looked up)
chain: MAILFAVVARGTTILAKHAWCGGNFLEVTEQILAKIPSENNKSTSSHGNYLFHYICQDRIVYLCITDDDFERSRAFSFLNEVKKRFQTTYGSRAQTALPYAMNSEFSSVLAAQLKHHSEN
notes: VAMP7 longin domain with L43S and Y45S; limits as the parent GST-VAMP7 longin domain (mouse 1-120 by the antibody paragraph); Used in ITC; source: E. coli BL21(DE3)/pLysS, purified, GST removed with thrombin; not shown: GST, N-terminal, cleaved

- Kd [1]: > 300 µM
- Kd [2]: > 300 µM
- Kd (Hrb(1-176) His6): 10.5 µM
- Kd [3]: > 300 µM
B2: VAMP7 longin domain, GST tag removed (domain or fragment, mouse, UniProt P70280 1-120, looked up)
chain: B1 chain with S43L, S45Y
notes: VAMP7 longin domain; GST-VAMP7 longin domain is described as mouse VAMP7 amino acids 1-120 in the antibody paragraph; also called VAMP7 LD; source: E. coli BL21(DE3)/pLysS, purified, GST removed with thrombin; not shown: GST, N-terminal, cleaved
